Settings in all cases: both partners purified
One experiment deals with T1, complement factor H (UniProt P08603 19-1231).
T1 construct: Complement factor H; also called FH; source: bought: Complement Technologies
In words: SPR; BIAcore 3000; TSP-1 bound covalently to CM5 chips at 0.1 uM; complement proteins as analytes at 12.3, 37.03, 111.1, 333.3, 1,000 nM in PBS plus 0.05% Tween 20; 1:1 Langmuir binding model; average of 3 repeated measurements. A general note: In SPR one partner is held on a chip, and binding of the other changes the refractive index at the surface.

The target in experiment [1] is T2, complement C8 (UniProt P07357 31-584; P07358 55-591; P07360 21-202).
T2 construct: source: bought: Complement Technologies; copies: + +
The description is as above.
T2 sequence (P07357 31-584, chain 1 of 3): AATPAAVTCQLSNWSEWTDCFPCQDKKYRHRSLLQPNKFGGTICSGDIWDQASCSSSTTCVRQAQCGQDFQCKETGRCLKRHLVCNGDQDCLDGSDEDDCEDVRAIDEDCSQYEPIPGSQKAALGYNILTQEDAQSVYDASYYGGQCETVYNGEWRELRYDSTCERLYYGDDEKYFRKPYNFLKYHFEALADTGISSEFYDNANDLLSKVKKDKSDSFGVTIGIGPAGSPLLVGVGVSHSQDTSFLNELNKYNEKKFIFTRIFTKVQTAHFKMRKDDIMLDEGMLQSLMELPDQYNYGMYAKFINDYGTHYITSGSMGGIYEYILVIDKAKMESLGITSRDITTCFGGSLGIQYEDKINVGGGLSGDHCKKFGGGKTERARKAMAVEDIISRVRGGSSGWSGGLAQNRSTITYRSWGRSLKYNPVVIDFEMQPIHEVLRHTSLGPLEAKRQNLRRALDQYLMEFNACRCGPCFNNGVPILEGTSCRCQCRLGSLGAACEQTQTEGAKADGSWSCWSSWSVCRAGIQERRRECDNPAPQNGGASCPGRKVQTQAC
T2 sequence (P07358 55-591, chain 2 of 3): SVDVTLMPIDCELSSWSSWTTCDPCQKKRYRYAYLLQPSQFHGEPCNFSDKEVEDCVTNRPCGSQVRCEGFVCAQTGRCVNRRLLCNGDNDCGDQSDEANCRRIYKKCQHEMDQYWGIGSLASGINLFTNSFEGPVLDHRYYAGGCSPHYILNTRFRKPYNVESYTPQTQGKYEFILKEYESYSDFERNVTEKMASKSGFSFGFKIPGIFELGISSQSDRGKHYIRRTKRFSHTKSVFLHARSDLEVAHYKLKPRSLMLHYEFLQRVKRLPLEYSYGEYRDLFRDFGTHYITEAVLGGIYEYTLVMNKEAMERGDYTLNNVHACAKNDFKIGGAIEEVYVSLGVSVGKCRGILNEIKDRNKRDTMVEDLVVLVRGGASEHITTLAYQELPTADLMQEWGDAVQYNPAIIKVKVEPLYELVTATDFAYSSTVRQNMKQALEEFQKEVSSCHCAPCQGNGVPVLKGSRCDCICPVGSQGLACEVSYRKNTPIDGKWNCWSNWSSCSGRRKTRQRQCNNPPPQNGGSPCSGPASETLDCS
T2 sequence (P07360 21-202, chain 3 of 3): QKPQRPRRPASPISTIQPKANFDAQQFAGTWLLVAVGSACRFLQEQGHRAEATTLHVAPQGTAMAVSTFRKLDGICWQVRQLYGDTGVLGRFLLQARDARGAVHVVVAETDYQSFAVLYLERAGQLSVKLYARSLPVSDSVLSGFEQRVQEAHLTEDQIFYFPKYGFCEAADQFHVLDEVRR

Another experiment concerns the target T3, complement factor H (FH) (UniProt P08603 19-1231).
T3 construct: Complement factor H, obtained from Complement Technologies; source: bought: Complement Technologies
Put plainly: SPR; BIAcore 3000; TSP-1 bound covalently to CM5 chips at 0.1 μM; complement proteins flowed at 12.3, 37.03, 111.1, 333.3, 1,000 nM in PBS plus 0.05% Tween 20; 1:1 Langmuir binding model; average of 3 measurements.

The next experiment has as its target T4, complement C3 (UniProt P01024 23-667; P01024 672-1663).
T4 construct: Complement C3 beta chain (75 kDa), cut from the C3 precursor; Complement C3 alpha chain (110 kDa), cut from the C3 precursor; source: bought: Complement Technologies
Described as above.

In experiment [2] the target is T5, complement C8 (UniProt P07357 31-584; P07358 55-591; P07360 21-202).
T5 construct: Complement component C8 alpha chain; Complement component C8 beta chain; Complement component C8 gamma chain; source: bought: Complement Technologies; copies: + +
The experiment is described as above.
T5 sequence (P07357 31-584, chain 1 of 3): as the sequence (P07357 31-584, chain 1 of 3) above
T5 sequence (P07358 55-591, chain 2 of 3): as the sequence (P07358 55-591, chain 2 of 3) above
T5 sequence (P07360 21-202, chain 3 of 3): as the sequence (P07360 21-202, chain 3 of 3) above

A further experiment concerns the target T6, complement C5 (UniProt P01031 19-673; P01031 678-1676).
T6 construct: Complement C5 beta chain; Complement C5 alpha chain; source: bought: Complement Technologies
The description is as above.

T1 sequence (P08603 19-1231): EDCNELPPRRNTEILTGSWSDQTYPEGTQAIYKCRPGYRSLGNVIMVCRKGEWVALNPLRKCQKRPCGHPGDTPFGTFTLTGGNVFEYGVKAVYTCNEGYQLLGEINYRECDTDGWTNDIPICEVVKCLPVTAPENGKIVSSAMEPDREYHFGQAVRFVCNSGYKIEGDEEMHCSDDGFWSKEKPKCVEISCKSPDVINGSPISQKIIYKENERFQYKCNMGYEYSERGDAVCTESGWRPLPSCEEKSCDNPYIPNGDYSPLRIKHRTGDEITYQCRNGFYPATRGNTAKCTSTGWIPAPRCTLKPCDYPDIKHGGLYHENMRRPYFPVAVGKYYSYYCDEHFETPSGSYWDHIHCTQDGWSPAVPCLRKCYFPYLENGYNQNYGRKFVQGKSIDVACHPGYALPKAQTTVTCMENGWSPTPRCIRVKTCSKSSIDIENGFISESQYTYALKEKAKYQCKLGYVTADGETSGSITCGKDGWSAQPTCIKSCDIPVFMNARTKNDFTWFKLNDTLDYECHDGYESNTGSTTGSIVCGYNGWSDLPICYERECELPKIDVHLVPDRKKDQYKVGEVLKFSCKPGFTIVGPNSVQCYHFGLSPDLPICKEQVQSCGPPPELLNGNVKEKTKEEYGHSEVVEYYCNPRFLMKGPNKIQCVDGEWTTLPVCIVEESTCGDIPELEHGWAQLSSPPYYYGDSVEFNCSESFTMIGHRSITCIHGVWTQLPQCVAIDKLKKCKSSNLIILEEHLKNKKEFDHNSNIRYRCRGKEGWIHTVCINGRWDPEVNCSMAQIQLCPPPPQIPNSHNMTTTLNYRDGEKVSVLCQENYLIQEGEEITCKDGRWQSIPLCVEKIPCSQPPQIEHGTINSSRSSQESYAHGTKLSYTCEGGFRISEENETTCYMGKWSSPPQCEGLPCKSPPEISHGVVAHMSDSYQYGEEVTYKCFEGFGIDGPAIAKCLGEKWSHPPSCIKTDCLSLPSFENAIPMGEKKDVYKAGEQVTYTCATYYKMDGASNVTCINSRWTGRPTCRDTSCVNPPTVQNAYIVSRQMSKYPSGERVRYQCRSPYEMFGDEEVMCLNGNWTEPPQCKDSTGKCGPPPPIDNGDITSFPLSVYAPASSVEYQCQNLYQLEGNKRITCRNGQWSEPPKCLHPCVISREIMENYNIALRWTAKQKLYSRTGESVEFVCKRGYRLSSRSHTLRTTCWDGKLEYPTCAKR
T3 sequence (P08603 19-1231): as above
T6 sequence (P01031 19-673, chain 1 of 2): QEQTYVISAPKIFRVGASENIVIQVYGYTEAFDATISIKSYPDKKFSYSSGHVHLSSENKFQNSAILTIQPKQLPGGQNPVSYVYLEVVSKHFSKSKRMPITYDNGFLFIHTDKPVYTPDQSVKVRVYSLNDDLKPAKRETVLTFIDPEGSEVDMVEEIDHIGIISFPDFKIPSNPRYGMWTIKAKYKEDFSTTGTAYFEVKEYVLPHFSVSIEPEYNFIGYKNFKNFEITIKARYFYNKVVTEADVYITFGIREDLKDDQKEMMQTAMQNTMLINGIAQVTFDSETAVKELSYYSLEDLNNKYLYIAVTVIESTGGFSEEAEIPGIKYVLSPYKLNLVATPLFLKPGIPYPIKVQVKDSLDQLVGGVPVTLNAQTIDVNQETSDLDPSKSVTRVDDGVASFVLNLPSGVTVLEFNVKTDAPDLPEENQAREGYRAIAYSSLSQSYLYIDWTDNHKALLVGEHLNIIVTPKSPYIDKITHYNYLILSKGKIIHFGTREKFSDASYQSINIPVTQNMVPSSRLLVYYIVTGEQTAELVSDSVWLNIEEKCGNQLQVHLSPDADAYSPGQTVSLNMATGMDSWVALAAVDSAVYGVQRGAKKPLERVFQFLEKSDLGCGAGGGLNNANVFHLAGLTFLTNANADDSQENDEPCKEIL
T6 sequence (P01031 678-1676, chain 2 of 2): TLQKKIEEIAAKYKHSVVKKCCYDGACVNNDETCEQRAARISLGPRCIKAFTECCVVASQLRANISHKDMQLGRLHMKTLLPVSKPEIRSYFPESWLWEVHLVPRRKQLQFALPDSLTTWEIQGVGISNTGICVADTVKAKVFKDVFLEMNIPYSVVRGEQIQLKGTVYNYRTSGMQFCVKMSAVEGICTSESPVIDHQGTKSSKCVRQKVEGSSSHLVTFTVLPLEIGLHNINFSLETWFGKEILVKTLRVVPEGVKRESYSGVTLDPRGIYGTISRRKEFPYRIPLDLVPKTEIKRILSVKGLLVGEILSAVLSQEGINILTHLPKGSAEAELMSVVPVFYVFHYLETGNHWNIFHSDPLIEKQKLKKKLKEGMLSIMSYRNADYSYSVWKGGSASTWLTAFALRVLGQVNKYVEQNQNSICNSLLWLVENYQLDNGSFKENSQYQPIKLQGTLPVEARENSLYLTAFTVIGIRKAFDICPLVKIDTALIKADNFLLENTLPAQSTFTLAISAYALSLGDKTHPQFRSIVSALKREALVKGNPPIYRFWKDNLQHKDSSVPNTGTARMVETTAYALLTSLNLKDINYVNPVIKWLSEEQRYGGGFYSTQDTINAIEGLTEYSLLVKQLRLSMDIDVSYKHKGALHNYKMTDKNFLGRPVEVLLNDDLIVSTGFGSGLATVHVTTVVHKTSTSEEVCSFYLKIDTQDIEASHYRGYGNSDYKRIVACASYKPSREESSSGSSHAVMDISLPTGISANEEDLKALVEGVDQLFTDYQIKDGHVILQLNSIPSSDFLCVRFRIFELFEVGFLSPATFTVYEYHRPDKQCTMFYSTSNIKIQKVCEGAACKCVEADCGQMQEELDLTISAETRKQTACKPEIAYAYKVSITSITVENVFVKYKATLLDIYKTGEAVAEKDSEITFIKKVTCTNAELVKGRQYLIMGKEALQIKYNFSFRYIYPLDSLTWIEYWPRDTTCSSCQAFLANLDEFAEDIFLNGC

B1: recombinant full-length thrombospondin-1 (natural protein)
chain: not shown
notes: Thrombospondin-1, human cDNA from Sinobiological (HG10508-UT), subcloned into pFastbac1 behind a gp67 signal peptide for secretion; The gp67 signal peptide stands in place of or before the native one; also called TSP-1; source: Spodoptera frugiperda 9 cells (baculovirus), purified from cell supernatants via Ni-NTA columns; not shown: 10xHis, N-terminal, kept
In the case of B1, the equilibrium dissociation constant (Kd) (commonly the equilibrium constant for the complex coming apart) in the experiment with complement factor H amounted to 203 nM; with complement C8 [1], 310 nM.

B2: recombinant full-length thrombospondin-1 (TSP-1) (natural protein)
chain: not shown
notes: Thrombospondin-1, human cDNA (Sinobiological HG10508-UT) subcloned into pFastbac1 with a gp67 signal peptide for secretion and an N-terminal 10xHis tag; called recombinant full-length TSP-1; Secreted through a gp67 signal peptide; also called recombinant TSP-1; source: Spodoptera frugiperda 9 cells (baculovirus), purified from cell supernatants via Ni-NTA columns; not shown: 10xHis, N-terminal, …
Consider B2, for which the Kd turned out to be 203 nM in the experiment with complement factor H (FH), 127 nM with complement C3, 311 nM in the experiment with complement C8 [2] and 47 nM with complement C5.

(Values after publication PMC12208556, “Thrombospondin-1 inhibits alternative complement pathway activation in antineutrophil cytoplasmic antibody-associated vasculitis” (The Journal of Clinical Investigation, 2025).)
